{"source": "patent US20030124132A1", "about": "(University of Texas, published 2003)", "key": {"[1]": {"system": "L540 human Hodgkin's disease tumors", "assay": "Growth of L540 tumors after immunoglobulin-tTF conjugate and/or etoposide", "type": "in vivo, mice", "details": "day 14", "description": "(§1) The tumor test systems were: i) L540 human Hodgkin's disease tumors growing in SCID mice; ii) C1300 Muγ (interferon-secreting) neuroblastoma growing in nu/nu mice; iii) H460 human non-small cell lung carcinoma growing in nu/nu mice. To establish solid tumors, 1.5×10^7 tumor cells were injected subcutaneously into the right anterior flank of SCID or BALB/c nu/nu mice (Charles River Labs., Wilmingham, Mass.). When the tumors had grown to various diameters, mice were assigned to different experimental groups, each containing 4 to 9 mice.\n(§2) Other mice received equivalent quantities of bispecific antibody alone. The injections were performed over ˜45 seconds into one of the tail veins, followed by 200 μl of saline. The infusions were repeated six days later. Perpendicular tumor diameters were measured at regular intervals and tumor volumes were calculated.\nMice bearing L540 human Hodgkin's disease tumors were treated with a complex of tTF219 and a bispecific antibody together with the anti-cancer drug, etoposide, at a conventional dose."}, "[2]": {"system": "VCAM-1 on mouse endothelial cells", "assay": "VCAM-1 upregulation on endothelial cells by TNFα (FACS)", "type": "cell-based", "description": "(§3) Mouse endothelial cells were seeded in 48 well tissue culture plates and allowed to adhere overnight. Cells were stimulated with TNFα at the following concentrations: 500 U/ml; 100 U/ml; 20 U/ml; 4 U/ml; 0.8 U/ml; 0.16 U/ml; and with medium only.\nEndothelial cells were then investigated for upregulation of the adhesion molecule VCAM-1 by fluorescence activated cell stain (FACS). To this end, cells were stained with an antibody against murine VCAM-1, followed by an appropriate FITC-conjugated secondary antibody. Fluorescent cells were detected on a flow cytometer (Becton Dickinson, San Jose, Calif.)."}, "mouse endothelial cells": {"system": "mouse endothelial cells", "assay": "Cell based two stage coagulation assay after TNFα stimulation", "description": "as §3\nEndothelial cells were also tested for coagulant activity in a cell based two stage coagulation assay. After incubation with TNFα, cells were washed and incubated with coagulation factor mix (0.5 μg/ml factor VIIa in a mix containing 2.8 μg/ml factor IX, 3.4 μg/ml factor X, 50 μM phospholipids, in calcium buffer). The supernatant of wells was transferred into a 96 well ELISA plate. Substrate S2765 was added and Factor Xa generation measured."}, "[3]": {"system": "tissue factor on HUVEC cells", "assay": "FACS analysis of tissue factor expression on endothelial cells", "type": "cell-based, human", "details": "TNFα 500 U/ml, LPS 10 μg/ml, VEGF 1 nM, alone or in combination, 6 h", "description": "To analyze tissue factor expression on the surface of endothelial cells, HUVEC cells were incubated with TNFα (500 U/ml), LPS (10 μg/ml) or vascular endothelial growth factor (VEGF, 1 nM) alone or in combination for 6 h at 37°. Cells were then detached and stained for surface expression of human tissue factor with a sheep-anti-human tissue factor antibody (Haemochrom, Essen, Germany) and an appropriate FITC-conjugated secondary antibody. Fluorescent cells were detected on a flow cytometer (Becton Dickinson, San Jose, Calif.)."}, "bEnd 3 cells": {"system": "bEnd 3 cells", "assay": "Cell bound coagulation assay on stimulated endothelial cells (Factor Xa generation)", "type": "cell-based, mouse", "description": "(§4) To assay the coagulation induction of stimulated versus unstimulated endothelial cells, bend 3 cells were seeded in 48 well tissue culture plates at a density of 1×10^4 cells per well and allowed to adhere overnight. Cells were stimulated with endotoxin (0.5 μg/ml and 10 μg/ml) or TNFα (500 U/ml) for 4 h at 37° C. […] After incubation for 45 min at room temperature, cells were washed and incubated with various coagulation factor mixes as follows: (1) 0.5 μg/ml factor VIIa in a mix containing 2.8 μg/ml factor IX, 3.4 μg/ml factor X, 50 μM phospholipids, in calcium buffer (as specified above); (2) 0.01 μg/ml factor VIIa in a mix as in (1); (3) 2 μg/ml factor VII (Calbiochem-Novabiochem, San Diego, Calif.) in a mix as in (1); (4) 2 μg/ml factor VII. 0.01 μg/ml factor VIIa in a mix as in (1). The supernatant of wells was transferred into a 96 well ELISA plate. Substrate S2765 was added and Factor Xa generation measured alongside different concentrations of Factor Xa standard (7 nkatS2222; 0.7 nkatS2222; 0.07 nkatS2222). OD405 nm values were calculated as nkatS2222 Factor Xa from the Factor Xa standard curve.\nas §4, with “bEnd” for “To assay the coagulation induction of stimulated versus unstimulated endothelial cells, bend”, “with” for “with various”, “mix” for “mixes”, “follows:” for “follows: (1)”, “buffer;” for “buffer (as specified above); (2) 0.01 μg/ml factor VIIa in a mix as in (1); (3) 2 μg/ml factor VII (Calbiochem-Novabiochem, San Diego, Calif.) in a mix as in (1); (4) 2 μg/ml factor VII. 0.01 μg/ml factor VIIa in a mix as in (1). The”"}, "[4]": {"system": "HT29 human colorectal carcinomas", "assay": "Anti-tumor effects of tTF219 in HT29 tumors", "type": "in vivo, Nu/nu mice", "details": "large (1200 mm^3) tumors, i.v.", "description": "Anti-tumor effects were also observed in mice bearing HT29 human colorectal carcinomas. Nu/nu mice bearing large (1200 mm^3) tumors on their flanks were injected intravenously with tTF219 or PBS (control), and growth of the tumors was monitored each day for 10 days. The tumors in the tTF219 treated mice discontinued growth for about 7 days after treatment, whereas the tumors in mice treated with PBS continued to grow unchecked."}, "[5]": {"system": "HT29 (human colorectal carcinoma) xenograft", "assay": "Tumor necrosis by tTF constructs with Factor VIIa, HT29 xenograft", "type": "in vivo, BALB/c nu/nu mice", "details": "single agents; 24 hours"}, "[6]": {"system": "A20 lymphoma cells (I-A^d positive), mouse or human plasma", "assay": "In vitro coagulation assay on A20 cells with capture bispecific antibody B21-2/10H10", "type": "cell-based"}, "[7]": {"system": "C1300 mouse neuroblastoma vessels", "assay": "In vivo tumor thrombosis by tTF, C1300", "parameters": "species or system BALB/c nu/nu mice", "text": "(§5) Tumor test systems were of four types: i) 3LL mouse lung carcinoma growing subcutaneously in C57BL/6 mice; ii) C1300 mouse neuroblastoma growing subcutaneously in BALB/c nu/nu mice; iii) HT29 human colorectal carcinoma growing subcutaneously in BALB/c nu/nu mice; and iv) C1300 Muγ mouse neuroblastoma growing subcutaneously in BALB/c nu/nu mice. The C1300 Muγ tumor is an interferon-γ secreting transfectant derived from the C1300 tumor (Watanabe et al., 1989).\n(§6) To establish tumors, 10^6 to 1.5×10^7 tumor cells were injected subcutaneously into the right anterior flank of the mice. When tumors had grown to various sizes, mice were randomly assigned to different study groups. […] Fab′, or bispecific antibody. Other mice received equivalent quantities IgG, Fab′ or bispecific antibody alone. The injections were performed slowly into one of the tail veins over approximately 45 seconds, usually followed by 200 μl of saline.\n(§7) Twenty-four hours after being injected with tTF or immunoglobulin-tTF conjugates, the mice were anesthetized with metophane and were exsanguinated by perfusion with heparinized saline. Tumors and normal tissues were excised and immediately fixed in 3% (v/v) formalin. Paraffin sections were cut and stained with hematoxylin and eosin. Blood vessels having open lumens containing erythrocytes and blood vessels containing thrombi were counted. […]"}, "C1300 Muγ tumors": {"system": "C1300 Muγ tumors", "assay": "Anti-tumor effects of tTF and immunoglobulin-tTF in C1300 Muγ tumors", "type": "in vivo, nu/nu mice", "details": "300 mm^3 tumors", "description": "as §1, §2\nMice bearing small (300 mm^3) C1300 Muγ tumors were injected intravenously with 16-20 μg tTF219. The treatment was repeated one week later. […] One week after the second treatment with tTF219, tumors were 60% of the size of tumors in mice receiving diluent alone. The greater effectiveness of the second injection probably derives from the greater thrombotic action of tTF219 on vessels in large tumors, observed above.\nMice bearing small (300 mm^3) subcutaneous C1300 Muγtumors were treated with tTF219 or with a complex of tTF219 and a bispecific antibody, OX7 Fab′/10H10 Fab′, not directed to a component of the tumor environment. The treatment was repeated 6 days later."}, "[8]": {"system": "H460 human lung carcinomas", "assay": "Anti-tumor effects of tTF219 in H460 tumors", "type": "in vivo, nu/nu mice", "description": "as §1, §2\nIn addition to the effects in mice bearing C1300 Muγ tumors, similar anti-tumor effects were observed using other tumor types. […] The second treatment with tTF219 was given when the tumors were larger (900 mm^3) and caused the tumors to regress to 550 mm^3 before regrowing."}, "[9]": {"system": "C1300 Muγ mouse neuroblastoma vessels", "assay": "In vivo tumor thrombosis by tTF, C1300 Muγ", "parameters": "species or system BALB/c nu/nu mice", "text": "as §5, §6, §7"}, "[10]": {"system": "3LL mouse lung carcinoma vessels", "assay": "In vivo tumor thrombosis by tTF, 3LL", "parameters": "species or system C57BL/6 mice", "details": "large (>800 mm^3) tumors", "text": "as §5, §6, §7"}}, "data": [{"molecule": "COc1cc([C@@H]2c3cc4c(cc3[C@@H](O[C@@H]3O[C@@H]5CO[C@@H](C)O[C@H]5[C@H](O)[C@H]3O)[C@H]3COC(=O)[C@H]23)OCO4)cc(OC)c1O", "note": "[etoposide]", "values": [{"measurement": "average tumor volume", "setting": "[1]", "value": 1400, "unit": "mm^3"}]}, {"molecule": "TNFα", "values": [{"measurement": "TNFα required for a measurable increase of VCAM-1 expression", "setting": "[2]", "value": 20, "unit": "U/ml"}, {"measurement": "TNFα at which an increase in coagulation versus negative control could be detected", "setting": "mouse endothelial cells", "value": 0.16, "unit": "U/ml"}, {"measurement": "dose for coagulation increase lower than for VCAM-1 increase", "setting": "mouse endothelial cells", "value": 125, "unit": "fold"}, {"measurement": "tissue factor expression on the surface of HUVEC", "setting": "[3]", "value": "upregulated tissue factor expression"}, {"measurement": "Factor Xa generation", "setting": "bEnd 3 cells; cells stimulated with TNFα (500 U/ml), then incubated with row agent (row Medium = stimulant alone), mix with 0.5 μg/ml factor VIIa", "value": 0.35, "unit": "nkats2222"}, {"measurement": "Factor Xa generation due to Factor VIIa production", "setting": "bEnd 3 cells; cells stimulated with TNFα (row Medium = stimulant alone), mix with 2 μg/ml factor VII and 0.01 μg/ml factor VIIa", "value": 1.23, "unit": "nkats2222"}]}, {"molecule": "tTF219: residues 1-219 of TF plus an additional glycine at the N-terminus (protein) GSGTTNTVAAYNLTWKSTNFKTILEWEPKPVNQVYTVQISTKSGDWKSKCFYTTDTECDLTDEIVKDVKQTYLARVFSYPAGNVESTGSAGEPLYENSPEFTPYLETNLGQPTIQSFEQVGTKVNVTVEDERTLVRRNNTFLSLRDVFGKDLIYTLYYWKSSSSGKKTAKTNTNEFLIDVDKGENYCFSVQAVIPSRTVNRKSTDSPVECMGQEKGEFRE", "values": [{"measurement": "time of discontinued tumor growth after treatment", "setting": "[4]", "value": "about 7 days"}, {"measurement": "tumor necrosis", "setting": "[5]", "value": "some necrosis"}, {"measurement": "plasma coagulation time", "setting": "[6]; 10^−10 M tTF219, 13.5 nM Factor VIIa", "value": 20, "unit": "s"}, {"measurement": "plasma coagulation time", "setting": "[6]; 10^−10 M tTF219, absence of Factor VIIa", "value": 60, "unit": "s"}, {"measurement": "increase in coagulation-inducing potency", "setting": "[6]; presence of 0.1 nM Factor VIIa", "value": "2-5 fold"}, {"measurement": "enhancement in coagulation-inducing potency", "setting": "[6]; presence of 13.5 nM Factor VIIa", "value": "~100", "unit": "fold"}, {"measurement": "tumor vessel thrombosis", "setting": "[7]; large tumors (>1000 mm^3), 24 hours after injection", "value": "virtually all vessels were thrombosed"}, {"measurement": "tumor vessel thrombosis", "setting": "[7]; small (<500 mm^3) tumors", "value": "largely unaffected"}, {"measurement": "tumor size, of tumors in mice receiving diluent alone", "setting": "C1300 Muγ tumors; 16-20 μg i.v., repeated one week later, one week after second treatment", "value": 60, "unit": "%"}, {"measurement": "tumor size, of controls receiving diluent alone", "setting": "C1300 Muγ tumors; treatment repeated 6 days later, fourteen days after the first injection", "value": 75, "unit": "%"}, {"measurement": "effect on growth rate", "setting": "[8]; first treatment, tumors 250 mm^3", "value": "little effect on growth rate"}, {"measurement": "tumor volume to which tumors regressed", "setting": "[8]; second treatment, given at 900 mm^3", "value": 550, "unit": "mm^3"}, {"measurement": "tumor vessel thrombosis", "setting": "[9]; 24 hours after injection", "value": "practically all vessels in all regions of the tumor were thrombosed"}, {"measurement": "tumor vessel thrombosis", "setting": "[9]; small (<500 mm^3) tumors", "value": "largely unaffected"}, {"measurement": "tumor vessels thrombosed, average", "setting": "[10]", "value": 62, "unit": "%"}]}]}
